Laboratory results: US11287428B2, “PD1 and PDL-1 expression during progression from myelodysplastic syndrome to acute myelogenous leukemia” (H. Lee Moffitt Cancer Center and Research Institute, Inc., priority 2016, dated 2022)

What was measured:
Format in all cases: cell-based, human
CD71 cells = assay: Active caspase 3 staining of BM cells cultured with S100A9; conditions: BM cells cultured with S100A9, 48 h
Method: (§1) FIG. 21. Increased the expression of PD-1 and PD-L1 induced cell death. One and half million of BM cells from Healthy donor were placed per well in 24-well plate, cultured with IgG or S100A9. After 48 h, cells were collected and stained for cell surface with antibodies: anti-CD33-PE-Cy7, anti-CD34-Percp-Cy5.5, anti-CD14-BV510, anti-CD71-BV421, anti-CD38-BV711, and anti-CD235a-BUV395, then cells were fixed/permeabilized and stained with anti-active caspase 3-PE according to manufacturer's protocol (BD Biosciences). Near infrared live/dead dye was used for distinction of live or dead cells. Flow acquisitions were performed using LSR II cytometer and analysis was done using live cells with flowjo. (A) PD-L1 expression on CD14+/CD33+: cells positive for PD-L1 surface expression were calculated based on FMO gate setting. (B) and (C). PD-1 expression on progenitors by S100A9 or PT plasma, respectively: Positive PD-1 surface expression on CD14−/CD33−/CD71−/CD34+/CD38+ progenitors was determined using FMO gates. HD—healthy donor (n=6), MDS—myelodysplastic syndrome (n=10). Significance was determined using two-tailed unpaired t test with Welch's correction: *P<0.05, **P<0.01, ***P<0.001, error bars indicate mean±SEM.

CD33+CD14+ cells = assay: Culture of BM cells with S100A9, PD-L1 surface expression by flow cytometry; conditions: BM cells cultured with S100A9, 48 h
Method: FIG. 5. Culture of BM cells with rhS100A9 can induce the expression of PDL1 on CD33+CD14+.
as §1, with “FIGS. 20A-20C. […]” for “FIG. 21. Increased the expression of PD-1 and PD-L1 induced cell death.”, “stained” for “stained for cell surface”, “anti-CD38-BV711, anti-CD235a-BUV395, anti-PD-1-FITC” for “anti-CD38-BV711,”, “anti-PD-L1-APC.” for “anti-CD235a-BUV395, then cells were fixed/permeabilized and stained with anti-active caspase 3-PE according to manufacturer's protocol (BD Biosciences).”, “(C)” for “(C).”, “respectively.” for “respectively:”

[1] = system: CD33+, CD34+, and CD71+ cells; assay: Culture of BM cells with S100A9, PD-1 surface expression by flow cytometry; conditions: for PD-1 expression on CD34+ cells / PD-1 expression on CD71+ cells: BM cells cultured with S100A9, 48 h
Method: FIGS. 6A and 6B. Culture of BM cells with rhS100A9 can induce the expression of PD1 on CD33+.
FIG. 7. Culture of BM cells with rhS100A9 can induce the expression of PD1 on CD34+.
FIG. 8. Culture of BM cells with rhS100A9 can induce the expression of PD1 on CD71+.
as §1, with “FIGS. 20A-20C. […]” for “FIG. 21. Increased the expression of PD-1 and PD-L1 induced cell death.”, “stained” for “stained for cell surface”, “anti-CD38-BV711, anti-CD235a-BUV395, anti-PD-1-FITC” for “anti-CD38-BV711,”, “anti-PD-L1-APC.” for “anti-CD235a-BUV395, then cells were fixed/permeabilized and stained with anti-active caspase 3-PE according to manufacturer's protocol (BD Biosciences).”, “(C)” for “(C).”, “respectively.” for “respectively:”

C-Myc = C-Myc and p-stat3 induction in HD BM cells cultured with S100A9; conditions: HD BM cultured with S100A9 for 48 h
Method: FIG. 23. […] Right panel, HD BM cells 48 h treatment.

[2] = listed as recombinant human S100A9

B1: S100A9: recombinant human S100A9 protein used to treat BM cells (protein, UniProt P06702 1-114, looked up)
Protein S100-A9: MTCKMSQLERNIETIINTFHQYSVKLGHPDTLNQGEFKELVRKDLQNFLKKENKNEKVIEHIMEDLDTNADKQLSFEEFIMLMARLTWASHEKMHEGDEGPGHHHKPGLGEGTP
Question: B1 was tested. Which “active caspase 3 in CD71 cells” value (CD71 cells) did it give?
Answer: Its value is “increase active caspase 3”.

Question: And the “PD-L1 expression on CD33+CD14+ cells” value (CD33+CD14+ cells)?
Answer: The value was “directly induced the expression of PD-L1”.

Question: And the “PD-L1 expression on CD33+CD14+ cells” value (CD33+CD14+ cells; [2])?
Answer: The value was “induces PDL1 expression”.

Question: What about the “PD-1 expression on CD34+ cells” value [1] of the same molecule?
Answer: Its value is “directly induced”.

Question: What about the “PD-1 expression on CD71+ cells” value [1] of the same molecule?
Answer: The value was “directly induced”.

Question: And the “PD-1 expression on CD34+ cells” value [1, 2]?
Answer: Its value is “induces PD1”.

Question: And the “PD-1 expression on CD71+ cells” value [1, 2]?
Answer: Its value is “induces PD1”.

Question: And the “PD-1 expression on CD33+ cells” value ([1]; BM cells cultured with rhS100A9)?
Answer: Its value is “induces PD1”.

Question: And the C-Myc expression (C-Myc)?
Answer: The C-Myc expression was “induced C-Myc expression”.

Question: And the p-stat3 (C-Myc)?
Answer: The p-stat3 was “induced p-stat3”.
